In data set [1] the target is YbaK (Escherichia coli) (UniProt P0AAR3). The following applies: cited from earlier work.
Data set [2] shares this target. The note with it: cited from earlier work. The source holds these as a separate data set.
Data set [3] relates to ProXp-ala (Caulobacter crescentus). Put plainly: native MS competition. The note with it: equimolar three-tRNA mix, 0.33 uM each; 5 uM protein; 1 mM Mg(OAc)2; unmodified transcript; AUC: 50 mM HEPES pH 6.8, 30 mM KCl, 1 mM MgCl2, 20 C; native MS: 200 mM ammonium acetate pH 7.5 (1 mM Mg(OAc)2 stated for ProXp-ala/YbaK competition); scale: ratio of complex tRNAPro:tRNACys:tRNAAla.

Where two headings read alike, the source gives them in different places.

Take ProRS (from UniProt P16659): the Kd – broadly, the constant that tells how readily two partners part at equilibrium – was 550 nM with YbaK (Escherichia coli) [1] and 45 nM with YbaK (Escherichia coli) [2]. Turning to tRNACys, the binding signal in data set [3] turned out to be 1.

On to tRNAAla G35A, for which the binding signal in data set [3] is 1.

Turning to tRNAPro, the binding signal in data set [3] was determined as 4.
